Results published in patent publication US20260184782A1 (TWIST BIOSCIENCE, published 2026).
Like-named read-outs stand apart in the source and are kept apart here.

T1: TIGIT (UniProt Q495A1 22-141, limits assumed)
T1 construct: also called T cell immunoreceptor with Ig and ITIM domains; hTIGIT
T1 sequence (looked up): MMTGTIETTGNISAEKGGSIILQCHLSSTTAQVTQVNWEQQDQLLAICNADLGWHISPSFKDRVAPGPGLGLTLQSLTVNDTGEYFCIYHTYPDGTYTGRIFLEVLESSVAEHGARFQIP

T2: TIGIT on PBMCs (UniProt Q495A1 22-244, limits assumed)
T2 sequence (looked up): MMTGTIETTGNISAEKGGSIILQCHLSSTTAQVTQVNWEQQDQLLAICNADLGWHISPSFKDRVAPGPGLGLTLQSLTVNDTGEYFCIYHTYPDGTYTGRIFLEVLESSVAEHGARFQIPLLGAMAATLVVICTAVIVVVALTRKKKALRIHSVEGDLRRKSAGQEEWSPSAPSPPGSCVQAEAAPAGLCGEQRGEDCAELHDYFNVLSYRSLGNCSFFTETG

T3: human TIGIT-Fc (human, UniProt Q495A1 22-141, limits assumed)
T3 construct: not shown: Fc; not described
T3 sequence (looked up): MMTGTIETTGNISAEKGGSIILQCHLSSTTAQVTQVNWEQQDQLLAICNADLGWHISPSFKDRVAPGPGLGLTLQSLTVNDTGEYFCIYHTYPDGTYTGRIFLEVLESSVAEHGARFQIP


Tests used:
TIGIT [1] = target: T1, TIGIT; assay: ELISA; design: unit not given here
TIGIT [2] = target: T1, TIGIT; assay: SPR (Carterra)
TIGIT [3] = target: T1, TIGIT; assay: SPR (Carterra); remark: listed apart in the source
TIGIT [4] = target: T1, TIGIT; assay: TIGIT:CD155 blockade assay, competitor CD155
TIGIT on PBMCs = target: T2, TIGIT on PBMCs; assay: cell-based or functional assay
human TIGIT-Fc [5] = target: T3, human TIGIT-Fc; assay: CD155 competition ELISA, titration
Description: (§1) TIGIT/CD155 inhibition of VHH-Fcs were assessed using an ELISA assay (Table 10B). Briefly, human TIGIT-Fc was coated on a plate & then incubated with VHH-Fcs and human CD155-biotin. Bound CD155-biotin was detected using a streptavidin-HRP conjugate visualized with TMB. Strong inhibitors from the single point screen were titrated to determine EC50 (Table 10C).

human TIGIT-Fc [6] = target: T3, human TIGIT-Fc; assay: CD155 competition ELISA, single point; also: test concentration or dose not given here
Description: as §1

| Binder | ELISA (TIGIT [1]) | Kd (TIGIT [2]) [µM] | koff (TIGIT [2]) [s⁻¹] | kon (TIGIT [2]) [M⁻¹ s⁻¹] | Kd (TIGIT [3]) [µM] | RU (TIGIT [3]) [RU] | koff (TIGIT [3]) [s⁻¹] | kon (TIGIT [3]) [M⁻¹ s⁻¹] | IC50 (TIGIT [4]) [µM] | T-cell activation EC50 (TIGIT on PBMCs) [µM] | EC50 (human TIGIT-Fc [5]) [µM] | OD (450 nm) (human TIGIT-Fc [6]) [OD] |
| --- | --- | --- | --- | --- | --- | --- | --- | --- | --- | --- | --- | --- |
| TIGIT-471-001 (antibody, V domains shown, Variable domains only) VH: EVQLLESGGGLVQPGGSLRLSCAASGFTFSNYGVSWVRQAPGKGLEWVGYINPSRGYTYYADSVKGRFTISRDNSKNTLYLQMNSLRAEDTAVYYCARSYGGGFDYWGQGTLVTVSS VL: DIQMTQSPSSLSASVGDRVTITCRASQTIERRLNWYQQKPGKAPKLLIYDASSLHTGVPSRFSGSGSGTDFTLTISSLQPEDFATYYCQQSYIIPPTFGQGTKVEIK |  |  |  |  | 0.0613 | 175 | 0.022 | 359000 | 0.0096 |  |  |  |
| TIGIT-471-019 (antibody, V domains shown, Variable domains only) VH: EVQLLESGGGLVQPGGSLRLSCAASGFTFSNYGVSWVRQAHGKGLEWVVYINPSRGYTYYADSVKGRFSISRDNSKNTLYLQMNSLRAEDTAVYYCARSYGGGFDYWGQGTLVTVSS VL: DIQMTQSPSSLSASVGDRVTITCRASQTIERRLNWYQQKPGKAPKLLIYDASSLHTGVPSRFSGSGSGTDFTLTISSLQPEDFATYYCQQSYIIPPTFGQGTKVEIK |  |  |  |  | 0.164 | 156 | 0.0565 | 344000 | 0.0136 |  |  |  |
| TIGIT-SC41 (Fc fusion, VHH-Fc) VHH: EVQLVESGGGLVQPGGSLRLSCAASGMTTIGPMGWFRQAPGKEREFVASIAWGDGNTYYADSVKGRFTISADNSKNTAYLQMNSLKPEDTAVYYCVRGGSRTLWGQGTLVTVSS |  |  |  |  |  |  |  |  |  | 0.00183 | 0.01 | 0.0921 |
| TIGIT-211-42 (antibody, V domains shown) VH: EVQLLESGGGLVQPGGSLRLSCAASGFTFNHYGMGWVRQAPGKGLEWVSYISSSGSSTYYADSVKGRFTISRDNSKNTLYLQMNSLRAEDTAVYYCAKGWLGNFDYWGQGTLVTVSS VL: DIQMTQSPSSLSASVGDRVTITCRASQGVRTSLAWYQQKPGKAPKLLIYGKNIRPSGVPSRFSGSGSGTDFTLTISSLQPEDFATYYCQQSYSFPLTFGQGTKVEIK | 8 | 0.0661 | 0.000643 | 9740 |  |  |  |  |  |  |  |  |
| TIGIT-211-51 (antibody, V domains shown) VH: EVQLLESGGGLVQPGGSLRLSCAASGFTFHKYGMAWVRQAPGKGLEWVSTISSGGGYTYYPDSVKGRFTISRDNSKNTLYLQMNSLRAEDTAVYYCARDTYLHFDYWGQGTLVTVSS VL: DIQMTQSPSSLSASVGDRVTITCRASQGVRTSLAWYQQKPGKAPKLLIYAKNNRPSGVPSRFSGSGSGTDFTLTISSLQPEDFATYYCQQSYSAPYTFGQGTKVEIK | 10.7 | 0.0965 | 0.0335 | 347000 |  |  |  |  |  |  |  |  |
| TIGIT-211-35 (antibody, V domains shown) VH: EVQLLESGGGLVQPGGSLRLSCAASGFTFNAYPMTWVRQAPGKGLEWVSAITGSGGSTYYADSVKGRFTISRDNSKNTLYLQMNSLRAEDTAVYYCARDGSYSSSWYGYWGQGTLVTVSS VL: DIQMTQSPSSLSASVGDRVTITCSGNKLGDKYASWYQQKPGKAPKLLIYRTSWLQSGVPSRFSGSGSGTDFTLTISSLQPEDFATYYCVARAVRGNPHVLFGQGTKVEIK | 8.8 | 0.605 | 0.0406 | 67100 |  |  |  |  |  |  |  |  |
| TIGIT-211-43 (antibody, V domains shown) VH: EVQLLESGGGLVQPGGSLRLSCAASGFTFYDYTMDWVRQAPGKGLEWVSAISGSGGGTSYADSVKGRFTISRDNSKNTLYLQMNSLRAEDTAVYYCARRHWPGGFDYWGQGTLVTVSS VL: DIQMTQSPSSLSASVGDRVTITCRASQSIRRYLNWYQQKPGKAPKLLIYWASDRESGVPSRFSGSGSGTDFTLTISSLQPEDFATYYCQQSFSTPLTFGQGTKVEIK | 12 | 0.819 | 0.00117 | 1430 |  |  |  |  |  |  |  |  |
| TIGIT-211-69 (antibody, V domains shown) VH: EVQLLESGGGLVQPGGSLRLSCAASGFTFGNYRMTWVRQAPGKGLEWVGVIWGGGGTYYADSVKGRFTISRDNSKNTLYLQMNSLRAEDTAVYYCARIFSYALDYWGQGTLVTVSS VL: DIQMTQSPSSLSASVGDRVTITCRASQNIRSYLNWYQQKPGKAPKLLIYGASTLQSGVPSRFSGSGSGTDFTLTISSLQPEDFATYYCQQSYENPLTFGQGTKVEIK | 7.9 | 3.04 | 0.0622 | 20400 |  |  |  |  |  |  |  |  |

Continued, values first:

| ELISA (TIGIT [1]) | Kd (TIGIT [2]) [µM] | koff (TIGIT [2]) [s⁻¹] | kon (TIGIT [2]) [M⁻¹ s⁻¹] | Kd (TIGIT [3]) [µM] | RU (TIGIT [3]) [RU] | koff (TIGIT [3]) [s⁻¹] | kon (TIGIT [3]) [M⁻¹ s⁻¹] | IC50 (TIGIT [4]) [µM] | T-cell activation EC50 (TIGIT on PBMCs) [µM] | EC50 (human TIGIT-Fc [5]) [µM] | OD (450 nm) (human TIGIT-Fc [6]) [OD] | Binder |
| --- | --- | --- | --- | --- | --- | --- | --- | --- | --- | --- | --- | --- |
| 12.4 | 3.4 | 0.105 | 30800 |  |  |  |  |  |  |  |  | TIGIT-211-57 (antibody, V domains shown) VH: EVQLLESGGGLVQPGGSLRLSCAASGLTFPNYGMGWVRQAPGKGLEWVSAISREGRATYYADSVKGRFTISRDNSKNTLYLQMNSLRAEDTAVYYCARVIAAAGAFDYWGQGTLVTVSS VL: DIQMTQSPSSLSASVGDRVTITCRSSQSLVHSTGNTYLHWYQQKPGKAPKLLIYGKNIRPSGVPSRFSGSGSGTDFTLTISSLQPEDFATYYCQQSYTTPWTFGQGTKVEIK |
| 8.8 | 0.105 | 0.00125 | 11900 |  |  |  |  |  |  |  |  | TIGIT-211-45 (antibody, V domains shown) VH: EVQLLESGGGLVQPGGSLRLSCAASGFTFRRYVMGWVRQAPGKGLEWVSEISPSGGYTYYADSVKGRFTISRDNSKNTLYLQMNSLRAEDTAVYYCAKRWTFNTAFDYWGQGTLVTVSS VL: DIQMTQSPSSLSASVGDRVTITCRASQSIRRYLNWYQQKPGKAPKLLIYDASNLQSGVPSRFSGSGSGTDFTLTISSLQPEDFATYYCQQSYDFPRTFGQGTKVEIK |
|  |  |  |  | 0.0554 | 78 | 0.0122 | 221000 | 0.0059 |  |  |  | TIGIT-471-038 (antibody, V domains shown, Variable domains only) VH: EVQLLESGGGLVQPGGSLRLSCAASGFTFSNYGVSWVRQAPGKGLEWVGYINPSRGYTYYADSVKGRFTISRDNSKNTLYLQMNSLRAEDTAVYYCARSYGGGFDYWGQGTLVTVSS VL: DIQMTQSPSSLSASVGDRVTITCRASQTIERRLNWYQQKPGKAPKLLIYDASSLHTGVSSRFSGSGSGTYFTLTISSLQAEDFATYYCQQSYIIPPTFGQGTKVEIK |
|  |  |  |  | 0.0514 | 122 | 0.0192 | 373000 | 0.0098 |  |  |  | TIGIT-471-048 (antibody, V domains shown, Variable domains only) VH: EVQLLESGGGLVQPGGSLRLSCAASGFTFSNYGVSWVRQAPGKGLEWVGYINPSRGYTYYADSVKGRFTISRDNSKNTLYLQMNSLRAEDTAVYYCARSYGGGFDYWGQGTLVTVSS VL: DIQMTQSPSSLSASVGDRVTITCGASQTIERRLNWYQQKPGKAPKLLIYDASSLHTGVPSRISGSGSGTDFTLTISSLQPEHFATYYCQQSYIIPPTFGQGTKVEIK |
|  |  |  |  | 0.395 | 93.7 | 0.0484 | 123000 | 0.0032 |  |  |  | TIGIT-471-035 (antibody, V domains shown, Variable domains only) VH: EVQLLESGGGLVQPGGSLRLSCAASGFTFNAYPMTWVRQAPGKGLEWVSAITGSGGSTYYADSVKGRFTISRDNSKNTLYLQMNSLRAEDTAVYYCARVWRNHLDYWGQGTLVTVSS VL: DIQMTQSPSSLSASVGDRVTITCSGDKLGHTYTSWYQQKPGKAPKLLIYRASTLASGVPSRFSGSGSGTDFTLTISSLQPEDFATYYCQQGYTLPWTFGQGTKVEIK |
|  |  |  |  | 7.29 | 1080 | 0.269 | 36900 | 0.0144 |  |  |  | TIGIT-471-011 (antibody, V domains shown, Variable domains only) VH: EVQLLESGGGLVQPGGSLRLSCAASGFTFSNYGVSWVRQAPGKGLEWVSSIDWHGWVTYYADSVKGRFTISRDNSKNTLYLQMNSLRAEDTAVYYCVKNALRFDYWGQGTLVTVSS VL: DIQMTQSPSSLSASVGDRVTITCSASQDINKYLNWYQQKPGKAPKLLIYHTSRLQSGVPSRFSGSGSGTDFTLTISSLQPEDFATYYCQQVVWRPFTFGQGTKVEIK |
|  |  |  |  | 0.06 | 57.5 | 0.00926 | 154000 | 0.0135 |  |  |  | TIGIT-471-027 (antibody, V domains shown, Variable domains only) VH: EVQLLESGGGLVQPGGSLRLSCAASGFTFSNYGVSWVRQAPGKGLEWVSWISPHGALTYYADSVKGRFTISRDNSKNTLYLQMNSLKAEDTAVYYCAKGRRRFDYWGQGTLVTVSS VL: DIQMTQSPSSLSASVGDRVTITCRASQTISSYLNWYQQKPGKAPKLLIYENNNRPSGVPSRFSGSGSGTDFTLTISSLQPEDFATYYCQQSYIIPPTFGQGTNVEIK |
|  |  |  |  |  |  |  |  |  | 0.0135 | 0.00057 | 0.0858 | Tiragolumab (antibody, V domains shown) VH: EVQLQQSGPGLVKPSQTLSLTCAISGDSVSSNSAAWNWIRQSPSRGLEWLGKTYYRFKWYSDYAVSVKGRITINPDTSKNQFSLQLNSVTPEDTAVFYCTRESTTYDLLAGPFDYWGQGTLVTVSS VL: not shown |
| 10.2 | 0.392 | 0.0405 | 103000 |  |  |  |  |  |  |  |  | TIGIT-211-40 (antibody, V domains shown) VH: EVQLLESGGGLVQPGGSLRLSCAASGFTFSRYAMNWVRQAPGKGLEWVSEISPSGKKKYYADSVKGRFTISRDNSKNTLYLQMNSLRAEDTAVYYCAKSSFDKYNFDYWGQGTLVTVSS VL: DIQMTQSPSSLSASVGDRVTITCRASQDIGNFLNWYQQKPGKAPKLLIYRTSWLQSGVPSRFSGSGSGTDFTLTISSLQPEDFATYYCQQRSSYPPTFGQGTKVEIK |
